Experimental data from the nanobody polyreactivity screen of Harvey et al. (2022).

assay: yeast display, Sf9 membrane polyspecificity reagent, FACS + sequencing; frameworks hold sequencing errors
How it was run: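 A synthetic nanobody library was expressed on Saccharomyces cerevisiae BJ5465 by galactose induction for 36–48 hours. The library was stained for 1 hour at 4 °C with 10% biotinylated, detergent-solubilized Sf9 membrane reagent and enriched with streptavidin microbeads before FACS. Low and high (top ~1%) gates were set on anti-HA fluorescence for expression and streptavidin fluorescence for reagent binding, and each polyreactivity label reflects the gate of origin.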

Sequence	polyreactivity (PSR sort gate)
QVQLVESGGGLVQAGGSLRLSCAASGSIFQVYAMGWYRQAPGKEREFVAAISYSGGGTYYADSVKGRFTISRDNAKNTVYLQMNSLKPEDTAVYYCAADVSGWEYDYWGQGTQVTVSS	low polyreactivity
QVQLVESGGGLVQAGGSLRLSCAASGSIFQVYAMGWYRQAPGNESEFVADIDWSGESTYYADSVKGRFTISRDNAKNTVYLQMNSLKPEDTAVYYCAAEDGYVTWDRDYEYWGQGTQVTVSS	low polyreactivity
QVQLVESGGGLVQAGGSLRLSCAASGSIFQWYAMGWYRQAPGKERELVAAISFNGGITYYADSVKGRFTISRDIAKNTVYLQMNSLKPEDTAVYYCATLPGWGYAAYEYWGQGTQVTVSS	low polyreactivity
QVQLVESGGGLVQAGGSLRLSCAASGSIFQWYAMGWYRQAPGKERELVAAITISGTRTYYADSVKGRFTISRDNAKNTVYLQMNSLKPEDTAVYYCAARYTPRRYYYWGQGTQVTVSS	high polyreactivity
QVQLVESGGGLVQAGGSLRLSCAASGSIFQYNAMGWYRQAPGKESELVAVISWSGDTYYADSVKGRFTISRDNAKNTVYLQMNSLKPEDTAVYYCATDVLAWAPNDYWGQGTQVTVSS	low polyreactivity
QVQLVESGGGLVQAGGSLRLSCAASGSIFQYNTMGWYRQAPGKERELVAAINWSGVSTYYADSVKGRFTISRDNAKNTVYLQMNSLKPEDTAVYYCNARRYVAGSYIYERGYWGQGTQVTVSS	high polyreactivity
QVQLVESGGGLVQAGGSLRLSCAASGSIFRANVMGWYRQAPGKERELVASINSDDNTYYADSVKGRFTISRDNAKNTVYLQMKRLKPEDSAVYYCYSEWGLFYDWTVLHMYLDGYYYWGQGTEVTVSS	low polyreactivity
QVQLVESGGGLVQAGGSLRLSCAASGSIFRAYAMGWYRQAPGKERELVATISGSGGSTDYADSVKGRFTISRDTAKNTVYLQMNSLKPEDTAVYYCARDDPASHKRYWHDYWGQGTQVTVSS	low polyreactivity
QVQLVESGGGLVQAGGSLRLSCAASGSIFRFNAMGWSRQAPGKERELVARITSGGSTNYADSVKGRFTISRDNAKNTVYLQMNSLKPEDTAVYYCAAVYLLRGRRVTSYPYGYWGQGTQVTVSS	high polyreactivity
QVQLVESGGGLVQAGGSLRLSCAASGSIFRGNAIGWYRQAPGKDRELVAAISWNGVSTYYADSVKGRFTISRDNAKHTVYLQMNSLKPEDTAVYYCPTVGLRRLFVKPGTLKDYWGQGTQVTVSS	low polyreactivity
QVQLVESGGGLVQAGGSLRLSCAASGSIFRGNAMGWYRQAPGKERELVAAISKSGGSTYYADSVKGRFTISRDNAKNTVYLQMNSLKPEDTAVYYCAARTTYLYGMYYWGQGTQVTVSS	low polyreactivity
QVQLVESGGGLVQAGGSLRLSCAASGSIFRGNTMGWYRQAPGKERELLAAINWTGGSTYYADSVKGRFTISRDNAKYTVYLQMNSLKPEDTAVYYCAARKFTSYYWGRSYGYWGQGTQVTVSS	high polyreactivity
QVQLVESGGGLVQAGGSLRLSCAASGSIFRGYAMGWYRPAPGKERELVAAISSSGGTTYYADSVKGRFTISRDNAKNTVYLQMNSLKPEDTAVYYCNARHPYTGGRRYPYTRYDYWGQGTQVTVSS	high polyreactivity
QVQLVESGGGLVQAGGSLRLSCAASGSIFRGYAMGWYRQAPGKEREFVASITWSAGRTRYADSVKGRFTISRDNAKNTVYLQMNSLKPEDTAVYYCAADHGSYWPRYDYWGQGTQVTVSS	high polyreactivity
QVQLVESGGGLVQAGGSLRLSCAASGSIFRGYAMGWYRQAPGKERELVAGIRGSDGSTYYADSVKGRFTISRDNAKNTVYLQMNSLKPEDTAVYYCAADRRYLDRDKHRYGYWGQGTQVTVSS	low polyreactivity
QVQLVESGGGLVQAGGSLRLSCAASGSIFRHNAMGGYRQSPGKERELVAAISRRASSTYYADSVKGRFTISRDNAKNTVYLQLNSLKPEDTAVYYCAVVPSTTYHAYDYWGQGTQVTVSS	high polyreactivity
QVQLVESGGGLVQAGGSLRLSCAASGSIFRIYAMGWYRQAPGKERELVAAITGRGGSTYYADSVKGRFTISRDNAKNTVYLQMNSLKPEDTAVYYCAAEERYAYRYDYWGQGTQVTVSS	high polyreactivity
QVQLVESGGGLVQAGGSLRLSCAASGSIFRIYAMGWYRQAPGKEREWVAAINSGGITNYADSVKGRFTISRDNAKNTVYLQMNSLKPEDTAVYYCNARQGVYGLYLRAYPYEYWGQATQVTVSS	low polyreactivity
QVQLVESGGGLVQAGGSLRLSCAASGSIFRIYVMGWYRQAPGKERELVAAINSGGRTKYADSVKGRFTISRDNAKNTVYLLMNSLKPDDTAVYYCAAAFLYRKGVSSLYDSWGQGTQVTVSS	high polyreactivity
QVQLVESGGGLVQAGGSLRLSCAASGSIFRIYVMGWYRQAPGKERELVAAITNDGSTSYADSVKGRFTISRDNAKNTVYLQMNSLKPEDTAVYYCNAYRRRATYNGDYWGQGTQVTVSS	high polyreactivity
QVQLVESGGGLVQAGGSLRLSCAASGSIFRKNAMGWYREAPGKERELVATISGGGSTTYADSVKGRFTISRDNAKNTLYLQMNSLKPEDTAVYYCAARSTWFQIRYGYWGQGNQVTVSS	high polyreactivity
QVQLVESGGGLVQAGGSLRLSCAASGSIFRKNAMGWYRPAPGKERELVATISGGGSTTYADSVKGRFTISRDNAKNTVYVHMNSLKPEDTAVYYCAARSTWFQLRYGYGGQGTQVTVSS	high polyreactivity

Sequence	polyreactivity (PSR sort gate)
QVQLVESGGGLVQAGGSLRLSCAASGSIFRKYAMGWYRQAPGKERELVAAITGSGGSTYYADSVKGRFTISRDNAKNTVYLQMNSLKPEDTAVYYCAAPFGWRPLPISKVTSDYWGQGTQVTVSS	high polyreactivity
QVQLVESGGGLVQAGGSLRLSCAASGSIFRKYTMGWYRQAPGKERELVAAINTNGGSTYYADSVKGRFTISRDNAKNTVYLQMNSLKPEDTAVYYCRAWAQNQYNYWGQGTQVTVSS	high polyreactivity
QVQLVESGGGLVQAGGSLRLSCAASGSIFRLNTMGWYRQAPGKERELVAAITRSGSTNYADSVKGRFTISRDNAMNTVYLQMNSLKPEDTAVYYCAARYPREAAYGFEYWGQGTQVTVSS	high polyreactivity
QVQLVESGGGLVQAGGSLRLSCAASGSIFRLYAMGWYRQAPGKERELVAAITGRGTSTYYADSVKGRFTISRDNAKNTVYLQMNSLKPEDTAVYYCAARLFKNSGTTYDRYGYWGQGTQVTVSS	high polyreactivity
QVQLVESGGGLVQAGGSLRLSCAASGSIFRNYAMGWSRPATGKERELVASIRYSGGRTNYADSVKGRFTISRDNAKNTVYLQMNSLKPEDTAVYYCAADPGYGWQRAYYYWGQGTQVTVSS	high polyreactivity
QVQLVESGGGLVQAGGSLRLSCAASGSIFRNYAMGWYRKAPGKERELVADSTYYADSVKGRFTISRDNAKNTVYLQMNSLKPEDTAVYYCNTVYATRYDYWGQGTQVTVSS	high polyreactivity
QVQLVESGGGLVQAGGSLRLSCAASGSIFRNYAMGWYRQAPGKERELVSAITRGGGSTYYADSVKARFTISRDNAKNTVYLQMNSLKPEETAVYYCAAVRVFQYKYDRFNYWGQGTQVTVSS	high polyreactivity
QVQLVESGGGLVQAGGSLRLSCAASGSIFRPNALGWYRQAPGKERELVAAITWSGDSTYYADSVKGRFTISRDNAKNTVYLQINSLKPEDTAVYYCAVVSYKVTESGIRMYYWGQGTQVTVSS	low polyreactivity
QVQLVESGGGLVQAGGSLRLSCAASGSIFRPNAMGWYRQAPGKERELVAAINTSDDSTYYADSVKGRFTISRDNAKNTVYLQMNSLKPEDTAVYYCASDGVVPGRFFWPAHEYDYWGQGTQVTVSS	low polyreactivity
QVQLVESGGGLVQAGGSLRLSCAASGSIFRPNTMGWYRQAPGKERELVAAIRYRGGGTYYADSVKGRFTISRDNAKNTVYLQMNSLKPEDTAVYFCNAPRRNWSYDYWGQGTQVTVSS	high polyreactivity
QVQLVESGGGLVQAGGSLRLSCAASGSIFRPYAMGWYRQAPGKERELVAAISVRGGRSYYADSVKGRFTISRDNAKNTVYLQMNSLKPEDTAVYYCNTVRQLGYTGYDYWGQGTQVTVSS	high polyreactivity
QVQLVESGGGLVQAGGSLRLSCAASGSIFRPYAMGWYRQAPGKERELVAGISLRGGSTSYADSVKGRFTISRDNAKNTVYLQMNSLKPEDTAVYYCAASYWWKGDSTYGYWGQGTQVTVSS	high polyreactivity
QVQLVESGGGLVQAGGSLRLSCAASGSIFRQNVMGWYRQAPGKERELVAAISRNGGSTYYADSVKGRFTISRDNAKNTVYFQMNSLKPEDTGVYYCAARGFRRYDYWGQGTQVTVSS	high polyreactivity
QVQLVESGGGLVQAGGSLRLSCAASGSIFRQYAMGWYRQAPGKERELVAAIRSGGSTYYADSVKGRFTISRDNAKNTVYLQMNSLKPEDTAVYYCATRYHWSGYYYWGQGTQVTVSS	high polyreactivity
QVQLVESGGGLVQAGGSLRLSCAASGSIFRRFAMGWYRQAPGKEREFVAAISRSSDNTSYADSVKGRFTISRDNAKNTVYLQMNSLKPEDTAVYYCNADASWYGYWYYYWGQGTQVTVSS	low polyreactivity
QVQLVESGGGLVQAGGSLRLSCAASGSIFRRNAMGWYRQAPGKERELVAAISQSGGSTYYADSVKGRFTISRDNAKNTVYLQMNSLKPEDTAVYYCAAKAHTVGGYAYYHTSTYYWGQGTQVTVSS	high polyreactivity
QVQLVESGGGLVQAGGSLRLSCAASGSIFRRNAMGWYRQAPGKERELVATITSDGSTDYADSVKGRFTISRDNAKNTVYLQMNSLKPEDTAVYYCAADRGVYDPGDYWGQGTQVTVSS	low polyreactivity
QVQLVESGGGLVQAGGSLRLSCAASGSIFRRNAMGWYRQAPGKERELVAVITRSGGSTYYADSVKGRFTISRDNAKTTVDLQMNSLKPEDTAVYYCDASRSSTRSFDYWGQGTQVTVSS	high polyreactivity
QVQLVESGGGLVQAGGSLRLSCAASGSIFRRNGMGWYRQAPGKERELVAAITYRGGNTNYADSVKGRFTISRDNAKNTVYFQMNRLKPEDTAVYYCAADTYGWWYAFEYWGQGTQVKVSS	low polyreactivity
QVQLVESGGGLVQAGGSLRLSCAASGSIFRRNSMGWYRQAPGKERELVAAITRRGGSTYYADSVKGRFTISRDNAKNTVYLQMNSLKPEDTAVYYCAADPPDGFYYTWDYDYWGQGTQVTVSS	low polyreactivity
QVQLVESGGGLVQAGGSLRLSCAASGSIFRRNTMGWYRQAPGKERELVAAITFTGGRTYYADSVKGRFTISRDYAKNTVYLQMNSLKPEDTAVYYCNRVTAYYPTKFDYWGQGTQVNVSS	high polyreactivity
